Experimental data published in patent US20220267422A1.

Target: doppel (Prnd) recombinant protein immobilized on the SPR sensor chip
Assay: SPR, BIAcore T100, recombinant protein immobilized on chip

Chain of doppel (Prnd) recombinant protein immobilized on the SPR sensor chip (Q9UKY0 26-152): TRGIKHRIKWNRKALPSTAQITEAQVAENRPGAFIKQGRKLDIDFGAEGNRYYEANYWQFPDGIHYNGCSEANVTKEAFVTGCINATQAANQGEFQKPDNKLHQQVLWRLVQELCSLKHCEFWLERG

- Kd: 0.308 nM
B1: Human monoclonal antibody 3D1 (antibody, human IgG1, kappa, V domains shown)
VH: EVQLVESGGGLVQPGGSLRLSCAASGFTFSDYAMSWVRQAPGKGLEWVSRISGSGGTKYYADSVKGRFTISRDNSKNTLYLQMNSLRAEDTAVYYCAKHQVYWALDVWGQGTLVTVSS
VL: DIQMTQSPSSLSASVGDRVTITCRASQSISNWLNWYQQKPGKAPKLLIYATSSLQSGVPSRFSGSGSGTDFTLTISSLQPEDFATYYCQQSYSYPWTFGQGTKVEIKR
